# Assay results taken from publication PMC4178060, “Recombinant p35 from Bacteria Can Form Interleukin (IL-)12, but Not IL-35” (PLoS ONE, 2014).
# Where a chain is given by its changes, count along the chain named.
# T1: p40_(C197A) (murine p40, flag-tagged) (mouse) (UniProt P43432)
# T1 sequence: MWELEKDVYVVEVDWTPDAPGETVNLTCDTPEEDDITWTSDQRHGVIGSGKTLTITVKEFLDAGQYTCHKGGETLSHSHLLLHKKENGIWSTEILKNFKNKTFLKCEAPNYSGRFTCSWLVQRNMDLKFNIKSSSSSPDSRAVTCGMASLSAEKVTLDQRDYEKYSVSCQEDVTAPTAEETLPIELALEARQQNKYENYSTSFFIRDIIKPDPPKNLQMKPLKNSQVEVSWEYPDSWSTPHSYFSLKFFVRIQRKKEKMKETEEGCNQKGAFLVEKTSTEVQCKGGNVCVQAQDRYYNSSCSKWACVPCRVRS
# B1: p40 wildtype (murine p40, flag-tagged) (natural protein, mouse, UniProt P43432 23-335, looked up)
# chain: T1 sequence with A175C
# notes: murine p40 (IL-12 subunit beta); The supernatant holds monomer and disulfide-linked dimer; also called mp40; IL-12p40; source: HEK293, transiently transfected, conditioned supernatant
# B2: recombinant murine p35 from bacteria (p35bac) (natural protein)
# chain: RVIPVSGPARCLSQSRNLLKTTDDMVKTAREKLKHYSCTAEDIDHEDITRDQTSTLKTCLPLELHKNESCLATRETSSTTRGSCLPPQKTSLMMTLCLGSIYEDLKMYQTEFQAINAALQNHNHQQIILDKGMLVAIDELMQSLNHNGETLRQKPPVGEADPYRVKMKLCILLHAFSTRVVTINRVMGYLSSA
# What was measured:
# [1] = molecular target: the molecule itself; test: non-reducing SDS-PAGE with Western blot; 20 µl conditioned supernatant of transiently transfected HEK293 cells separated by SDS-PAGE under non-reducing conditions; flag-specific antibody; disulfide-linked dimer
# [2] = molecular target: T1, p40_(C197A) (murine p40, flag-tagged) (mouse)
Binder,stoichiometry N [1],"biological activity of IL-12 reconstituted with bacterially expressed p35, compared to IL-12 (Ba/F3-gp130-IL-12Rβ1-IL-12Rβ2 cells) (fold less active) [2]"
B1,2,–
B2,–,> 100
